B1: Formin-binding protein 4, residues 593 to 636; numbered along this chain, Q8N3X1 (parent)
chain: EINATPKGWSCHWDRDHRRYFYVNEQSGESQWEFPDGEEEEEES

Variants of: B1
Test: abundance fitness (aPCA) (normalised: wild type 0, dead -1); higher = more abundant; growth selection in yeast, the domain comes from the species named
Conditions: Homo sapiens

Abundance fitness: each site, then its substitutions
G28: Q -0.337, C -0.61, T -0.728, K -0.199, E -0.702, A -0.567, M -0.611, R -0.438, F -1.22, S -0.553, L -0.363, W -1.14, D -0.682, V -0.932
Y22: T -0.402, K 0.291, W 0.035, M -0.492, V -0.692, S -0.322, D -0.552, Q -0.439, G -0.544, N -0.092, E -0.482, I -0.515, A -0.572
W13: Q -0.546, D -0.71, Y -0.189, M -0.542, K -0.545, R -0.738, C -0.497, G -0.544, E -0.456, F -0.095, A -0.571, P -0.404, S -0.662, L -0.46, H -0.499, I -0.986
D14: H -0.289, Y -1.24, C -0.341, S -0.141, F -0.75, G -0.963, R -0.843, V -0.811, K -0.928, A -0.514, W -1.4, M -0.682, Q -0.667, E -0.685, P -1.12, I -0.799, T -0.747
R19: P -1.24, V -0.491, S -0.391, G -0.485, K -0.058, C -0.207, N -0.506, Q -0.092, Y -0.864, E -0.406, L -0.423, M -0.21, T -0.621
S27: P -1.02, K -0.485, M -0.641, F -0.988, T 0.022, N -0.453, G -0.458, D -0.551, W -1.52, R -0.422, Q -0.613, A -0.611, E -0.427, C -0.681
E25: S -0.365, C -0.355, D 0.144, M -0.253, P -0.449, A -0.179, V -0.17, K 0.477, Q 0.006, R -0.175, W -0.648, G -0.316, T -0.119, H -0.251
G8: L -0.795, N -0.373, S -0.623, M -0.605, R -0.621, T -0.843, V -0.664, K -0.408, Q -0.612
V23: E -0.26, P -0.736, A -0.347, L -0.024, F -0.367, D -0.513, G -0.607, K 0.074, M -0.331, R -0.039, T 0.324, Q -0.179, C -0.765
W9: P -0.512, C -0.56, D -0.742, Q -0.498, G -0.423, Y -0.534, S -0.368, L -0.719, E -0.661, M -0.591, V -0.629, K -0.619, A -0.568, R -0.817
Q31: P -0.819, W -0.613, V -0.153, I -0.472, A -0.377, C -0.129, R -0.075, M -0.451, S -0.293, E -0.707, L -0.383, N -0.742, T -0.115, H -0.47, K -0.32, F -0.416
Q26: G -0.199, V -0.19, P -1.06, C 0.133, F -0.015, A 0.017, S -0.071, T -0.104, R -0.085, M -0.242, K 0.18, H -0.266, L -0.137
H17: G -0.274

From the Human Domainome abundance scans (Beltran et al. 2025)
